Measured values: patent US5578310A, “Topical bioadhesive ointment compositions and their use in wound healing” (Berlex Laboratories Inc., priority 1994, dated 1996)

How the values were obtained:
[1] = In vivo uptake and tissue distribution of 125I-TGFα from TJ-TGFα formulation on wounded cheek pouch; set-up: species or system Golden Syrian hamsters; settings: for Distribution of 125I-TGFα in the Tissues: Small Intestine / Distribution of 125I-TGFα in the Tissues: Stomach / Distribution of 125I-TGFα in the Tissues: Submaxillary Gland / Distribution of 125I-TGFα in the Tissues: Thyroid / Distribution of 125I-TGFα in the Tissues: Tongue / Distribution of 125I-TGFα in the Tissues: Blood / Distribution of 125I-TGFα in the Tissues: Cecum / Distribution of 125I-TGFα in the Tissues: Colon / Distribution of 125I-TGFα in the Tissues: Esophagus / Distribution of 125I-TGFα in the Tissues: Kidney / Distribution of 125I-TGFα in the Tissues: Liver: cheek pouch wound; for Distribution of 125I-TGFα in the Tissues: Cheek Pouch: right-hand side cheek pouch (application site); for Distribution of 125I-TGFα in the Tissues: Skin: 25 cm^2 skin on back
Description: (§1) The TGFα-containing ointment composition of Example 2 (TJ-TGFα formulation) was subjected, both in vitro and in vivo, to evaluation to meet the therapeutical requirements for oral mucositis. The in vitro evaluation included TGFα release and extraction from the composition, autoclave sterilizability and the bioactivity and stability of TGFα in the composition. The in vivo evaluation included TGFα uptake and tissue distribution of absorbed TGFα from hamster's cheek pouch.
(§2) B. The in vivo uptake of TGFα from the TJ-TGFα formulation was determined in Golden Syrian hamsters, female, approximately 150 g using an ^125 I-TGFα formulation (specific activity-45 μci/μg), the hamster's cheek pouch having a mechanically created wound. A pharmacokinetic study of tissue distribution of TGFα absorbed by the hamsters was also conducted. The methods employed were as follows:
(§3) 1. Fast hamsters overnight.
(§4) 2. Anesthetize hamsters by I.M. injection of ketamine HCl.
(§5) 3. Create a 2 mm diameter wound on the right-hand side of hamster's cheek pouch by a biopsy punch.
(§6) 4. Following the removal of the debridement and blood clot, administer 20 μl TJ-TGFα formulation containing 26 μci 125I-TGFα onto the wound area by a Gilson Microman.
(§7) 5. Keep the hamsters in their cages and give no water or food during the course of 6 hours study.
(§8) 6. Select three hamsters at time 15 minutes, 30 minutes, 1 hour, 2 hours, 4 hours and 6 hours and select one hamster at 24 hours for TGFα uptake and tissue distribution study.
7. Punch a needle into the hamster's heart and withdrawn 1 ml blood by a 5 ml syringe.
(§9) 8. Sacrifice hamster by inhalation of an overdose of carbon dioxide vapor from dry ice in a closed chamber.
(§10) 9. Immediately after sacrificing, remove the liver, kidney, thyroid, submaxillary gland, esophagus, stomach, small intestine, cecum, colon, 25 cm^2 skin on back, tongue and right-hand side of cheek pouch.
(§11) 11. Count the CPM of ^125 I-TGFα that distributed in the hamster's tissue and GI contents.

[2] = In vivo distribution of 125I-TGFα in the GI contents from TJ-TGFα formulation on wounded cheek pouch; set-up: species or system Golden Syrian hamsters; settings: cheek pouch wound
Description: as §1, §2, §3, §4, §5, §6, §7, §8, §9, §10
10. Flush the contents of esophagus, stomach, small intestine and cecum with water and collect the contents separately into a test tube.
as §11

In the case of “^125 I-TGFα: 125I-labelled TGFα (specific activity 45 μci/μg) administered in TJ-TGFα formulation onto the hamster cheek pouch wound”, the “Distribution of 125I-TGFα in the Tissues: Small Intestine” value ([1]; 4 hrs.) was 0.12%, the “Distribution of 125I-TGFα in the Tissues: Stomach” value ([1]; 4 hrs.) was 0.74% and the “Distribution of 125I-TGFα in the Tissues: Submaxillary Gland” value (shortened to “Distribution … Submaxillary Gland”) ([1]; 4 hrs.) was 0.42%. The “Distribution of 125I-TGFα in the Tissues: Thyroid” value (“Distribution … Thyroid” for short) ([1]; 4 hrs.) was 0.39%, the “Distribution of 125I-TGFα in the Tissues: Tongue” value (“Distribution … Tongue” for short) ([1]; 4 hrs.) was 3.37% and the “Distribution of 125I-TGFα in the Tissues: Cheek Pouch” value (“Distribution … Cheek Pouch” below) ([1]; 4 hrs.) was 74%. For the same substance, the “Distribution of 125I-TGFα in the Tissues: Skin” value ([1]; 6 hrs.) was 0.13%, the “Distribution of 125I-TGFα in the Tissues: Blood” value ([1]; 6 hrs.) was 0.13% and the “Distribution of 125I-TGFα in the Tissues: Cecum” value ([1]; 6 hrs.) was 0.08%. The “Distribution of 125I-TGFα in the Tissues: Colon” value ([1]; 6 hrs.) was 0.12%, the “Distribution of 125I-TGFα in the Tissues: Esophagus” value ([1]; 6 hrs.) was 0.27% and the “Distribution of 125I-TGFα in the Tissues: Kidney” value ([1]; 6 hrs.) was 0.27%. For the same substance, the “Distribution of 125I-TGFα in the Tissues: Liver” value ([1]; 6 hrs.) was 0.24%, the “Distribution of 125I-TGFα in the Tissues: Small Intestine” value ([1]; 6 hrs.) was 0.15% and the “Distribution of 125I-TGFα in the Tissues: Stomach” value ([1]; 6 hrs.) was 1.06%. The “Distribution … Submaxillary Gland” value ([1]; 6 hrs.) was 0.77%, the “Distribution … Thyroid” value ([1]; 6 hrs.) was 0.88% and the “Distribution … Tongue” value ([1]; 6 hrs.) was 1.25%. The “Distribution … Cheek Pouch” value ([1]; 6 hrs.) was 84%, the “Distribution of 125I-TGFα in the Tissues: Skin” value ([1]; 24 hrs.) was 0.13% and the “Distribution of 125I-TGFα in the Tissues: Blood” value ([1]; 24 hrs.) was 0.22%. For the same substance, the “Distribution of 125I-TGFα in the Tissues: Cecum” value ([1]; 24 hrs.) was 0.05%, the “Distribution of 125I-TGFα in the Tissues: Colon” value ([1]; 24 hrs.) was 1.57% and the “Distribution of 125I-TGFα in the Tissues: Esophagus” value ([1]; 24 hrs.) was 0.04%. The “Distribution of 125I-TGFα in the Tissues: Kidney” value ([1]; 24 hrs.) was 0.24%, the “Distribution of 125I-TGFα in the Tissues: Liver” value ([1]; 24 hrs.) was 0.59% and the “Distribution of 125I-TGFα in the Tissues: Small Intestine” value ([1]; 24 hrs.) was 0.40%. For the same substance, the “Distribution of 125I-TGFα in the Tissues: Stomach” value ([1]; 24 hrs.) was 1.23%, the “Distribution … Submaxillary Gland” value ([1]; 24 hrs.) was 0.77% and the “Distribution … Thyroid” value ([1]; 24 hrs.) was 2.84%. The “Distribution … Tongue” value ([1]; 24 hrs.) was 0.66%, the “Distribution … Cheek Pouch” value ([1]; 24 hrs.) was 21% and the “Distribution of 125I-TGFα in the GI Contents: Cecum” value ([2]; 15 min.) was 0.003%. For the same substance, the “Distribution of 125I-TGFα in the GI Contents: Esophagus” value ([2]; 15 min.) was 0.00005%, the “Distribution of 125I-TGFα in the GI Contents: Small Intestine” value ([2]; 15 min.) was 0.003% and the “Distribution of 125I-TGFα in the GI Contents: Stomach” value ([2]; 15 min.) was 0.03%. The “Distribution of 125I-TGFα in the GI Contents: Cecum” value ([2]; 0.5 hrs.) was 0.01%, the “Distribution of 125I-TGFα in the GI Contents: Esophagus” value ([2]; 0.5 hrs.) was 0.01% and the “Distribution of 125I-TGFα in the GI Contents: Small Intestine” value ([2]; 0.5 hrs.) was 0.01%. For the same substance, the “Distribution of 125I-TGFα in the GI Contents: Stomach” value ([2]; 0.5 hrs.) was 0.056%, the “Distribution of 125I-TGFα in the GI Contents: Cecum” value ([2]; 1 hr.) was 0.02% and the “Distribution of 125I-TGFα in the GI Contents: Esophagus” value ([2]; 1 hr.) was 0.002%. The “Distribution of 125I-TGFα in the GI Contents: Small Intestine” value ([2]; 1 hr.) was 0.02%, the “Distribution of 125I-TGFα in the GI Contents: Stomach” value ([2]; 1 hr.) was 0.20% and the “Distribution of 125I-TGFα in the GI Contents: Cecum” value ([2]; 2 hrs.) was 0.02%. The “Distribution of 125I-TGFα in the GI Contents: Esophagus” value ([2]; 2 hrs.) was 0.01%, the “Distribution of 125I-TGFα in the GI Contents: Small Intestine” value ([2]; 2 hrs.) was 0.02% and the “Distribution of 125I-TGFα in the GI Contents: Stomach” value ([2]; 2 hrs.) was 0.40%. The “Distribution of 125I-TGFα in the GI Contents: Cecum” value ([2]; 4 hrs.) was 0.04%, the “Distribution of 125I-TGFα in the GI Contents: Esophagus” value ([2]; 4 hrs.) was 0.37% and the “Distribution of 125I-TGFα in the GI Contents: Small Intestine” value ([2]; 4 hrs.) was 0.06%. The “Distribution of 125I-TGFα in the GI Contents: Stomach” value ([2]; 4 hrs.) was 4.1%, the “Distribution of 125I-TGFα in the GI Contents: Cecum” value ([2]; 6 hrs.) was 0.05% and the “Distribution of 125I-TGFα in the GI Contents: Esophagus” value ([2]; 6 hrs.) was 0.27%. The “Distribution of 125I-TGFα in the GI Contents: Small Intestine” value ([2]; 6 hrs.) was 0.05%, the “Distribution of 125I-TGFα in the GI Contents: Stomach” value ([2]; 6 hrs.) was 7.8% and the “Distribution of 125I-TGFα in the GI Contents: Cecum” value ([2]; 24 hrs.) was 2.63%. The “Distribution of 125I-TGFα in the GI Contents: Esophagus” value ([2]; 24 hrs.) was 0.01%, the “Distribution of 125I-TGFα in the GI Contents: Small Intestine” value ([2]; 24 hrs.) was 0.52% and the “Distribution of 125I-TGFα in the GI Contents: Stomach” value ([2]; 24 hrs.) was 5.5%.
